Test system: Saccharomyces cerevisiae
Test: transcriptional activation domain activity (GFP:mCherry ratio, weighted mean of sorted bins, harmonized to initial dataset scale) (arbitrary fluorescence ratio units); higher = stronger transcriptional activation
Details: beta-estradiol 1 µM; induction time 4 h
Method in brief: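 Each value is an activation activity: the read-weighted mean of bin median fluorescence, averaged across barcodes, then mapped linearly to the initial dataset scale. The tiles, fused to an estradiol-inducible synthetic transcription factor, sat at the yeast URA3 locus in GFP-reporter diploids. Cells spent 4 hours at 30 °C in SC with 1 uM beta-estradiol before sorting into 8 GFP:mCherry bins, and tiles below 50 reads were removed.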

Sequence | transcriptional activation domain activity
PYIALIVLDVILIKLGSGRHIEYIQYVLTRATVKETEVLDFYAHIIYTTTLLI | 28800
PYIAYPLKPCLSGPLCELYPSTSNLWAMCLHLILVCIQVPFLLSTPFWLLLPL | 74200
PYILPLLILSKRLHSIFMLRCFNDCFAILFLFLAILCFQRRHWTVGSLIYSWG | 48300
PYIVYPLKPCLSGPLCELYPSVMNLWAMCLHLILLCIQIPFLLSIPFWLLFPL | 86900
PYLFIIRLLRLYKLPLIFMTSPVYIKTLKMMQNALGIGQTVAVIFPLTFWFCI | 27600
PYLSRLGEKNILADLMEFYRCKESWSLQSGLVFIRRIILQQVPIDVRILCAFL | 35500
PYQSSVDVLPRPLPVLRWTWVIVGISCFYFWCVSIPAPFLLFRICFPHFNLLT | 50500
PYSLDIKNTVLDSADLNDIQNQETSLNLGLPPLSFDSPLPVTETIPSTTDNSL | 73400
QAAAPAEKPATAAAGEAEKDGAAARGASTRGRGRGRGRGGRGGATAARRPRAD | 46200
QAAFRQRRANYIATLEETGWVVSILLYLHRSSLSFSAVTSLESVVLQLQDSCR | 53400
QAAQESDEESEAPNPTAKTLSKRAAEAWKQLSASDKDKYKVLADKEREEHARL | 28800
QAARTSDYSIAQFRFLLKLLLVHGRWNYVRICKYTLGTFWKEMLFYSVQALYQ | 15400
QAATGVGILLLLHDFKRVSIVILAQDGCDDEGWPNQLVAFAALLRSRLLKGGE | 22100
QADYMCQYKGGLIGKHFKTLSQVMAFAVHGLVPPDVLEAWLILGRLTVLLWHT | 49400
QAEDSNDNDNNNKAAAEEEEEEGGGERSGPMVNGNGGGGAEGMVNGASAVGRD | 14800
QAFTIVDPTPPIRFYDLHRLHLTLVHSPMRFFHVAPIIPFLLSYLIELYSLFY | 43100
QAGSTGSSSRKRKKAVTDGEETPSTSEPRRLRRSHEACARCRSKKIKASACDS | 28300
QAHPPVQVRKTSHKAAEQKRRDSLKTTFDDLRGTASAAAPPVGRHGRACAPGA | 35300
QANGVEKAVENLSISSPHPDTHAQSAPEQNGPKKKPNRAKARLARRAAEYEAL | 14100
QAPQAGRGQGAQGGRTRHQAGGARAEEDEPQGARQEGRGGQGGGEEEARGGEG | 37600
QARQAQEPAMSQKDLATKVNEKQSVINDYESGRAVPNQQLLAKLERALGVKLR | 51300

Sequence | transcriptional activation domain activity
QARQSKEPAMSQKDLATKVNEKQSVINDYESGRAVPNQQVLSKLERALGVKLR | 36800
QASPEAAKAEGEKASPEAAKAEGEAQPAEGQKEGEAAKAEGEAAAAEAGAGAG | 27600
QCAYVLEHCMDATPGIFNYIQLYYCSPVRPLVFVLLCAWLLFLFGFVGIAASD | 23300
QCGLICTLYFANRYGIILGSLPFALQPFIHWTSKGWCLIFRIYLLIYASFVLL | 43200
QCIFVLLVLLMRRHLAKMHLCLKQEIDWRELDDDRDTVTWVVAAVWQRFIDLK | 61000
QCYNYLRVILMVSVGQGLARSVHWCMFLYQQGLDYVLWYYRNTLLLVSFLIGW | 62200
QDAGGSGDKKGGVYVHCAMGKSRSVTCVVAYLLYRYPHRYGGTAGSSSTAQRR | 45800
QDALVELFGHMENFFRRLEKHIEVRPTTAMTDIIVKIMVEVLSILGIVTKEIE | 41200
QDEKHAEREGDTSSADGKEKSQDGDGGEKQKEGEGKPEKRNGVEAGAKNPAVK | 10600
QDNLNIEDKEEMSPNIEIKNEQNMTDSNDILGVFDQLDAQLFGKYLPLNYPSE | 81700
QEDDPMPYLSWTPTVGRNSAFVDLTEEQREELGGIEYRSLKLLLIILVCYYVG | 48300
QEKEGGAKEAQPDADADAEAEGKAARQKARKAVVSAASDDEGDDEEEEEEEEG | 10000
QELCRTANITYHRTSYPVVHRHLFSTPSLQRLMTWLKELPYQVAFQVELLVRG | 49100
QENAQTEKEERDEKERAREKGNEKEKGNESEKGDEKKKGNEKKKGTERGKGKG | 28100
QENHNSSENGNENENEQDSLALDDLDRAFELVEGMDMDWMMPSHAHHSPATTA | 123000
QENTLPATQANSSLLETYPIVQSNPVTTTIKESPNSIMAGWDNWESDMVWRDV | 90100
QEQEQEGMELGIKEGPADPRCKTCGRTEGTRKCTGCGRVRYCGRECQKKDWKV | 29700
QESEAVTEKCKNRLDITSEELERVLLQKEGESLKDNAVQQRQGAGGKRAIGKA | 23500
QESIPHQVGFSTPQLTAQQLIENAIESGVVDLETLDLPPFLSLDGLPPASSSA | 116000
QESVYIEVISYIGLIFDWFWYYILMNLSVFIWLACMYYTIFLYGFLEAYFPEK | 33000
QFALLLGSFLCVAISCFGHLALLFLWLIAPFYFLVFLFWQSFNLFLFVSVCCG | 44700

Sequence | transcriptional activation domain activity
QFARFTLEETNLMWKRAANPELTPLTSFPPLWVATRLRLFYVINSILSYFMTT | 60800
QFFFFVLSFFFFVGFVGADDLCSFILFLLFFSTPFFFIGKASLLSSFFAFHST | 51700
QFRYLKRLLLVHGHWSYARNGNMINNFFYKNIICIGVLWWFMIYCGWSSAYVF | 71200
QFSWNVCFMVFLFLFLFLFLCFVCFTLLCLSKMLHNVLHYNFILCFLSSFCFV | 52400
QGAAKAVFEPHFSQKDDEGNIIKKKFAVACRVRNCTKLDRMTVISALAAAVGQ | 46500
QGASAGVSPIFKKEKYTLKWKRVKEFNLIFVAVYQSLLHLGWIDRLLENISTI | 67900
QGDTDADGNGHGTHCSGTIAGKKYGVAKKAHVYAVKVLRSNGSGTMADVIGGV | 59600
QGDYMCQYRGGLIGKHFKTLLQIMAFAVQDLVPPDVLEAWLILGRLTVLLWHM | 82000
QGEEGEKKAGGRGRGGGRKKAEKHMAEGSGDEISPKKSGKGGEAGGSKAAAGA | 33700
QGFMNVTFTNGRKYEALSKQLIFIVHAIFMAANDHVGYILLRALRVYMELDVY | 69900
QGIEPLLPPKWGMLVGEARDLLVLFGALGEQERWNFWTTGCSYMTAMVLLTAN | 53000
QGIGLMYLVLVMLCLASLLITNLHFLTVYRSTLIHSYMSQLIVFSFLLPLSLV | 44700
QGRTLDVTRAVSRDRAEKLRETGERTRERKDKRNLYLMREGVIFVSTPSASTL | 39700
QGTNHAYHEHILNTDMDLKILEDLCNISSLYEVPFGKHINHHDHNNAGNGCDG | 83400
QHKKRRAEQAGRGEKAEADGSQARRKAEDRREEQQRAKQSAGQKEQEKVKAEQ | 56000
QHLRSDPQMRLWLVMFLFLTFMVHTILSATLSIIFVSITYSLFWLPQIVRSAR | 30800
QHMAQSAQSVMGLEDHNAYGDPDSASRKRSKVSRACDECRRKKVRPRRPANGV | 25800
QHNASQPGDLHSVLHRNQREGQHSVNQLVDRHSESQRGGQHNVNQQRDLQHGN | 33400
QIDQNGDPLAKYVRNKVRTTKYTIISILPKDLFEQFRNVIFFLVLVIFQNFPF | 56900
QILGCLYCVRWVHMCVYNVSGVQSLIPWLAMLPALARLKFSIWSHRGPPPDGD | 52100
QILICVIYVLVAYSRDDTSWSRVCYFMPCAPQSIKERDQAFSLFAGIFSFVVV | 39200

Sequence | transcriptional activation domain activity
QITNRILPSPAAVRYSGLIPLLVLVLVLPLFFLFFLFFFFFLFLFLFFLVLLY | 58800
QKKKEAAARNKAKAAPAKEEAAVTPAKVVEKPAAAAAATPAKGGKKMTAALRL | 37600
QKKLLILCGFGWLADNVSIYHLLSISCWFYYKGTQLYSLFLIRCGYRLWLLFF | 70700
QKLSWIDNSGFRWLIMPFIWSSFFIQWLAVFFEICIVILQLRVIAWWLGWLVC | 60700
QKMQKSGGFVNINVFGFVFIIAVSCVVVTLDITLLKFLIFISEFQRLTHLSAR | 45400
QKPEAAANATAVGEKKEVEEELKKVVEAKPEGKTEAGPAKEEGKAAEAAPAKA | 52800
QKRGLETHHRRSGFWAALRRAEKGKSWVFLFFFFLFFPFFSFFYFFLLFLFLF | 21800
QKVGSDKTPGGGSSQYIWLIVYLSISLLSSVLVATTMLLIYTGSLRASVILHE | 53500
QLAIELSAFADDSFIFPDEDKPSNNNNNSNNGNDDHSNHDVLHEDPSTNNRQR | 16300
QLALFRWCAKMCGDVLSARDLVILGCRILLRCLRSYAWDFLFGHLLFALRLVR | 72000
QLECFGSTSLGWKSLKLVLRAHALCLLAAAVKEGLFEYSYVRLLADLCLSLEC | 56200
QLEGDADLFLVPNFYVLRRISHLATTTLLRQLEAFSIRTPVFGVLLWKSLVAI | 49100
QLFTFLLQTYRMKYLVQRVSPRTIRQINDVRLRHLSYKLRQRLIWFADIMRSY | 58900
QLKVVRITFSGLGAVALTICPCTPVVEQLLQAVHLKVLYLVKELFVCIPPNTS | 48500
QLLLSRLVTWLIRLVCQDEGPLVLKKMCSTLATYFLRPTASWPQCIRHLICSF | 38800
QLLLVHEGCVMDRLAIAGFEGAALARALWFASFLKGVVRQDRIMEGMYYLLAP | 26300
QLMESVSELDLPPLTLDEPPQAIKFNLNLFNNDPSGQQQQQQQQQQNSTSSTI | 29000
QLMTGPVLLDREVQTGHSGSLLVLVMSCWSLECFERRQALRKTVLALLGPLRE | 70700
QLNLVNHFYQFSLHFFLDIFDYILHHNPNLKGVTDYPTRRAILLNDLFLVVYR | 58200
QLNLVNHFYQFSLRFFLDIFDYILHHNPNLKGVTDYSRRRAILLNDLFLVVYQ | 55500
